{
  "source": "paper PMC5609902",
  "about": "(2017)",
  "binders": {"B1": {"name": "JRFL rgp120 (natural protein)", "chain": "not shown"}, "B2": {"name": "Y498 IgG1 (antibody, V domains shown)", "VH": "KVQLVQSGTELKKPGASGKVSCKASGYTFNSNGLNWVRQAPGQGLEWVGWISGHSDETKHAQNFQGRLTLTTDTSTNTAYMELRSLRSDDTAVYYCARSLLRSLERLMGGTDAFDIWGQGTLVTVSS", "VL": "not shown"}},
  "test_in_all_cases": "SPR",
  "key": {"[1]": {"molecular_target": "VRC01"}, "[2]": {"molecular_target": "b12"}, "[3]": {"molecular_target": "B1"}, "[4]": {"molecular_target": "CN54 rgp120 (HIV-1 CN54 (CRF07_BC))"}},
  "data": [
    {"binder": "B1", "values": [
      {"measurement": "Kd", "setting": "[1]", "value": 5.35, "unit": "nM"},
      {"measurement": "koff", "setting": "[1]", "value": 0.000167, "unit": "s⁻¹"},
      {"measurement": "Kd", "setting": "[2]", "value": 1.11, "unit": "nM"},
      {"measurement": "koff", "setting": "[2]", "value": 0.000567, "unit": "s⁻¹"}
    ]},
    {"binder": "B2", "values": [
      {"measurement": "koff", "setting": "[3]", "value": 0.000105, "unit": "s⁻¹"},
      {"measurement": "koff", "setting": "[4]", "value": "2.3e-05", "unit": "s⁻¹"}
    ]}
  ]
}
